According to the supplement of paper PMC10567573:

B1: OAS1 (parent)
chain: LQLGEGVEFDVLPAFDALGQLTGG
B2: EMID1 (parent)
chain: FTETNNHWPQGPTGPPGPPGPMGP
B3: KCNA4 (parent)
chain: YQSGGRLKRPVNVPFDIFTEEVKF

Variants of: B1
Experiment: protein stability index of a GFP-peptide fusion (GPS, HEK-293T) (PSI 1-6); higher = more stable
Conditions: c terminus: a fixed tail appended
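Also: lentivirally expressed fusions sorted by FACS into six bins by GFP to DsRed ratio, PSI derived from sequencing read proportions per bin multiplied by bin number.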

Protein stability index, by site and new letter:
D10: V 2.77; Q 1.8; N 3
L18: Q 2.36; R 2.79; N 2.17; A 3.35
A17: N 2.28; S 1.84
D16: Q 2.29
T22: S 1.73; P 1.9; K 2.04; Q 1.14
L21: C 3.05; Y 1.51; G 2.36; H 1.68
Q20: P 1.78; D 2.65
V11: M 2.33; F 1.59
G23: H 1.58; R 2.68; E 2.26; T 1.67
G6: F 1.63; H 2.8; S 2.39
Q2: P 3.18
G4: N 2.16; W 1.65; P 2.36
F9: I 1.65; C 2.37; P 3.64
G19: S 1.54; N 2; Y 1.84; E 1.61
L12: T 2.4; G 2.69; H 3.08; S 3.82
L3: Q 3.6; H 4.17; W 2.49; V 2.34
L1: R 4.01; E 4.58; S 3.65; K 3.67; V 2.71
E8: K 1.83; H 2.07; N 2.4
V7: K 2.27; E 2.5; S 2.11; M 1.52
G24: I 3.05; K 2.49
E5: Y 1.14

Variants of: B2
Experiment: as above
Conditions: c terminus: a fixed tail appended

Protein stability index, by site and new letter:
P15: M 2.02; K 2.27; H 2.62; D 2.15; W 1.75; Q 2.21; L 2.34; N 2.25; E 2.66; Y 2.58; I 2.24; G 2.44; V 1.93; S 2.88; F 2.11; C 2.68; R 1.69
P19: Y 1.36; E 2.19; N 1.8; S 2; K 1.94; D 2.68; F 1.79; G 2.79; L 2.41; M 1.93; V 1.89; I 2.72
P18: N 1.47; W 2.55; V 2.37; M 1.68; Q 1.93; G 1.82; K 2.51; R 2.56; L 2.17; F 2; E 2.11; S 2.45; D 2.68; I 1.93; C 1.53; Y 2.33
P16: E 2.54; R 2.52; C 2.5; T 2.58; K 1.83; D 2.56; M 2.47; V 3.19; L 2.14; I 2.33; G 2.4; Y 2.07; A 2.65; N 2.23; F 2.02; S 2.1

Variants of: B3
Experiment: as above
Conditions: c terminus: a fixed tail appended

Protein stability index, by site and new letter:
Q2: V 3.32; D 2.97; N 2.12; R 2.22; I 1.93; W 1.48; G 1.77; L 1.64; S 2.58; M 2.56; P 2; K 2.14; Y 1.55; F 2.19; T 1.62; C 2.63; E 2.73
S3: T 2.32; I 1.63; C 1.69; K 2.27; N 1.98; G 2.05; W 2.23; E 2.57; H 2.5; Y 1.59; V 1.75; F 1.51; D 3.3; R 1.37; L 2.13; A 1.7; P 1.7
G5: A 2.32; L 1.49; H 3.03; K 2.14; T 2.7; R 1.8; Y 1.26; S 1.81; V 1.63; F 1.6; D 2.11; C 1.73; Q 2.08; N 1.94; M 1.77; W 1.59; E 2.29; I 1.72; P 2.53
K8: I 2.47; D 2.28; R 2.67; V 1.53; Q 2.56; S 1.93; E 1.98; W 5.95; P 1.7; N 2.23
G4: E 1.99; I 2.36; R 2.14; T 2.2; A 2.09; Y 1.27; L 2.77; D 1.96; N 1.73; P 3.26; H 2.33; C 1.74; W 2.56; K 2.12; M 2.08; S 1.99; F 1.71; V 1.78
P10: A 2.16; Y 1.93; T 1.79; D 1.38; W 1.14; K 1.4; Q 2.2; F 2.76; N 1.94; R 1.01; E 1.78; S 1.97; M 1.4; I 1.72; G 1.53; H 1.93; V 2.31
R6: Y 2.51; K 1.94; V 1.77; I 1.63; N 2.16; H 2.14; A 2.19; T 2.5; S 1.45; D 2.23; L 1.51; P 1.85; M 1.47; G 1.71; C 1.26; Q 2.15; E 1.63
V11: K 1.39; F 3.13; P 1.82; A 2.07; G 1.31; D 1.91; R 1.81; H 1.69; N 2.74; Y 2.06; E 1.65; L 1.95; Q 2.36; T 2.15; M 2.32; I 2.3
V13: K 2; L 1.78; D 1.55; F 1.52; H 1.91; N 1.2; A 1.47; C 2.18; M 1.61; I 1.75
L7: Q 1.68; E 2.16; K 2.15; T 2.15; W 1.77; V 2.28; C 1.78; D 1.95; S 2.29; G 1.84; F 2.4; A 1.71; N 1.84; R 1.7; M 1.56; Y 1.86; P 1.99; H 1.8
Y1: E 3.08; D 3.12; A 2.82; C 2.81; Q 3.33; M 2.69; I 1.93; P 2.29; N 3.04; F 1.6; S 3; K 2.88; G 3.48; T 2.88; L 3.97; R 3.12; H 2.88
R9: E 2.06; D 1.99; W 3.37; N 2.07; H 2.02; C 1.63; F 1.58; Q 2.34; P 1.72; S 2.1; M 1.46; A 2.04; I 1.65; G 2.31; T 1.7; V 1.69; Y 2.38; L 2.11; K 1.83
N12: I 1.44; S 2.96; C 1.8; M 2.13; T 2.07; V 1.54; H 1.91; K 3.14; L 2.43; E 1.22; Y 1.55; P 1.55; F 2.5; A 1.65; D 2.38
